Substitutions are numbered along the chain they refer to. Where two headings read alike, the source gives them in different places.
T1: rGyr_fl Y851F (full-length reverse gyrase) (Thermotoga maritima, UniProt O51934 1-1104, Y851F)
T1 sequence: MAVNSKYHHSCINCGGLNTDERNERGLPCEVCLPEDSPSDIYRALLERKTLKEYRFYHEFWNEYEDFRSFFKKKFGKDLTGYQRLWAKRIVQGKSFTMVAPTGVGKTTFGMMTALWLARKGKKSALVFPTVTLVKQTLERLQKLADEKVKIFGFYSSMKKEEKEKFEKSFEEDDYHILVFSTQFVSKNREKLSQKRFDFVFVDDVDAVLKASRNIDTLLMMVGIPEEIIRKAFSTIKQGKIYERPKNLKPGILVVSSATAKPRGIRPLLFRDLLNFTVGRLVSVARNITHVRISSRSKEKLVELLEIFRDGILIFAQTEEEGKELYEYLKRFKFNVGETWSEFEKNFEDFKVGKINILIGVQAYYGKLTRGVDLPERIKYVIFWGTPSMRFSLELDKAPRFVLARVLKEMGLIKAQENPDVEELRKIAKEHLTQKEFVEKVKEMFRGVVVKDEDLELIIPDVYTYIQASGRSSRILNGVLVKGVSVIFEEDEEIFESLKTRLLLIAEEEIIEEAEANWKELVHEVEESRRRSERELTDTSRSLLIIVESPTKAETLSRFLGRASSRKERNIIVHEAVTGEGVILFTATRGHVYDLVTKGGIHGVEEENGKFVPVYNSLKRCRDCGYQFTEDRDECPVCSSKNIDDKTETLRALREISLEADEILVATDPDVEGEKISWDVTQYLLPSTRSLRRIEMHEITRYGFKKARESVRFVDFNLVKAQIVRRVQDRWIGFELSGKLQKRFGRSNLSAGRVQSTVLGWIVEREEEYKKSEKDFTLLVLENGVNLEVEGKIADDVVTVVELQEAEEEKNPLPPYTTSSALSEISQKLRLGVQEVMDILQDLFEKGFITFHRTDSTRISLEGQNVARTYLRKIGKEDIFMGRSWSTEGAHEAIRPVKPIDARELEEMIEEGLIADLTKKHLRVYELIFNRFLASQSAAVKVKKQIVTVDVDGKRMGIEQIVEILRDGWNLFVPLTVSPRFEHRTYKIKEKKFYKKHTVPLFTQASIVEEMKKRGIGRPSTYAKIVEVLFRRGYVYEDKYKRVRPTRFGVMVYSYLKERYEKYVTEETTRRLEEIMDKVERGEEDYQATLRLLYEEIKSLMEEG

T2: rGyr_hel (reverse gyrase helicase-like domain) (Thermotoga maritima, UniProt O51934 59-541)
T2 sequence: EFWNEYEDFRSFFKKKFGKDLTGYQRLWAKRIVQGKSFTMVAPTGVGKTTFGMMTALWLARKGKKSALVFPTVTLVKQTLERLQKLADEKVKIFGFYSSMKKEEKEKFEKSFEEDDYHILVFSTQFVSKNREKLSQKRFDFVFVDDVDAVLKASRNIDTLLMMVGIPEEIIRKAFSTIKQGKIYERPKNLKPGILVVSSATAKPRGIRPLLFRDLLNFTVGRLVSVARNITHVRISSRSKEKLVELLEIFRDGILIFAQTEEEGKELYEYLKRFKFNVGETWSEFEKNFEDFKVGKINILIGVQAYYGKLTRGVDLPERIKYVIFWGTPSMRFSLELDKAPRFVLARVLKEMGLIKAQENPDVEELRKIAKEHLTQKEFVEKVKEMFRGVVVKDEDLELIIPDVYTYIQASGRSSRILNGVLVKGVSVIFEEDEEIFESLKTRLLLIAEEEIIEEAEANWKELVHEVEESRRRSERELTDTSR

T3: rGyr_hel K106Q (Thermotoga maritima, UniProt O51934 59-541, K106Q)
T3 sequence: T2 sequence with K48Q

B1: 60-base ssDNA (ssDNA)
DNA: AAGCCAAGCTTCTAGAGTCAGCCCGTGATATTCATTACTTCTTATCCTAGGATCCCCGTT
B2: 60 bp dsDNA (dsDNA)
DNA 1: B1 DNA
DNA 2: AACGGGGATCCTAGGATAAGAAGTAATGAATATCACGGGCTGACTCTAGAAGCTTGGCTT

Experiments:
Assay in all cases: fluorescence anisotropy
[1] = target: T1, rGyr_fl Y851F (full-length reverse …)
[2] = target: T1, rGyr_fl Y851F (full-length reverse …); remark: listed apart in the source
[3] = target: T2, rGyr_hel (reverse gyrase helicase-like …)
[4] = target: T3, rGyr_hel K106Q
[5] = target: T1, rGyr_fl Y851F (full-length reverse …); remark: listed apart in the source
[6] = target: T2, rGyr_hel (reverse gyrase helicase-like …); remark: listed apart in the source

Binder | Kd [1] [nM] | Kd [2] [nM] | Kd [3] [nM] | Kd [4] [nM] | Kd [5] [nM] | Kd [6] [nM]
B1 | 60 ± 15 | 41 ± 9 | 1200 ± 200 | 180 ± 30 | 35 ± 5 | 200 ± 30
B2 | 250 ± 40 | 330 ± 70 | 1000 ± 100 | 3800 ± 600 | 490 ± 60 | 3900 ± 600

From paper PMC2566858 (Nucleic Acids Research, 2008)
